The text below walks through data of article PMC6451097, “YB-1, an abundant core mRNA-binding protein, has the capacity to form an RNA nucleoprotein filament: a structural analysis”.

Data set [1] has as its target YB-1 CSD (Homo sapiens, UniProt P67809 52-129). The data set can be described thus: NMR HSQC; 1:1; EMSA: 20 mM Hepes pH 7.5, 40 mM KCl, room temp, 5 min (SSB: 20 mM Tris-HCl pH 7.6, 300 mM KCl, 37 C, 15 min); NMR: 100 uM protein, 1:1 oligo, 298 K (RNA 298 and 303 K), NMR buffer not in material. To be noted: protein: recombinant.
Data set [2] deals with YB-1C (Homo sapiens, UniProt P67809 1-180). Put plainly: NMR HSQC; 1:1; monomer; EMSA: 20 mM Hepes pH 7.5, 40 mM KCl, room temp, 5 min (SSB: 20 mM Tris-HCl pH 7.6, 300 mM KCl, 37 C, 15 min); NMR: 100 uM protein, 1:1 oligo, 298 K (RNA 298 and 303 K), NMR buffer not in material. The following applies: protein: recombinant; tags: His-tag (pET22b); untagged version also used.
YB-1C, sequence (P67809 1-180): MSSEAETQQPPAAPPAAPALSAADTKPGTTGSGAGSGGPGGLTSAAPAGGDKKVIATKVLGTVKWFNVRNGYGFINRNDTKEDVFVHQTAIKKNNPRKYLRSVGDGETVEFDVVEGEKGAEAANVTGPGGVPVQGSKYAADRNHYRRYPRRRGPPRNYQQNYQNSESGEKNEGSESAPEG

YB-1 CSD, sequence (P67809 52-129): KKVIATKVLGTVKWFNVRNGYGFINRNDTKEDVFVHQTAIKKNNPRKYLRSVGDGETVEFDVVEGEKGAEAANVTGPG

In the case of CCCCCCCCCC (ssDNA) [dC10], the binding result in data set [1] and in data set [2] was “binds” each time.
